Laboratory results as given in patent publication US20070020327A1.
One block for each binder: values may come before it.

Legend:
[1] = target: HLA-A*0301 (purified HLA class I molecule) (human); test: competition binding assay with purified HLA-A*0301; inhibition of 125I-labelled standard peptide 941.12 ([..], 11 nM), gel filtration
HLA-A*0201 (human) [2] = test: competitive inhibition of 125I-labelled standard peptide binding to purified HLA
HLA-A*0202 (human) [3] = test: as above
HLA-A*0203 (human) [4] = test: as above
HLA-A*0206 (human) [5] = test: as above
HLA-A*6802 (human) [6] = test: as above
HLA-A*0202 (human) [7] = test: competition with 125I-labeled probe peptide for purified HLA, gel filtration
HLA-A*0203 (human) [8] = test: as above
HLA-A*0206 (human) [9] = test: as above
HLA-A*6802 (human) [10] = test: as above
HLA-A*6802 (human) [11] = test: inhibition of 125I probe peptide binding to purified HLA, gel filtration; ratio = IC50 standard/IC50 test; conditions: remark: other sources report otherwise
HLA-A*0201 (human) [12] = test: competition with 125I-labeled probe peptide for purified HLA, gel filtration
HLA-A*1101 (human) [13] = test: competition with 125I-labelled standard peptide for purified HLA-A*1101, gel filtration; standard 940.06 [..] (6.0 nM)
HLA-A*0202 (human) [14] = test: competition for purified HLA with 125I-labelled standard peptide 941.01 [..] as competitor, gel filtration; conditions: scale: ratio
HLA-A*0101 (human) = test: competition with 125I-labelled standard peptide for purified HLA-A*0101, gel filtration
HLA-A*1101 (human) [15] = test: competition with 125I-labelled standard peptide for purified HLA-A*1101, gel filtration; ratio to the A*1101 standard peptide 940.06 [..] (6.0 nM)
HLA-A*0201 (human) [16] = test: competition with 125I standard peptide for purified HLA; gel filtration
HLA-A*0202 (human) [17] = test: as above
HLA-A*0203 (human) [18] = test: as above
HLA-A*6802 (human) [19] = test: as above
HLA-A*0201 (human) [20] = test: competitive inhibition of 125I-labelled standard peptide binding to purified HLA, gel filtration; ratio = IC50 standard / IC50 test peptide
HLA-A*0203 (human) [21] = test: as above
HLA-A*0206 (human) [22] = test: as above
HLA-A*0201 (human) [23] = test: competition for purified HLA with 125I-labelled standard peptide 941.01 [..] as competitor, gel filtration; conditions: scale: ratio
HLA-A*0203 (human) [24] = test: as above; conditions: scale: ratio
HLA-A*0206 (human) [25] = test: as above; conditions: scale: ratio
HLA-A*0301 (human) [26] = test: competition with 125I-labelled standard peptide for purified HLA-A*0301, gel filtration
HLA-A*0201 (human) [27] = test: inhibition of 125I probe peptide binding to purified HLA, gel filtration; ratio = IC50 standard/IC50 test; conditions: remark: other sources report otherwise
HLA-A*0202 (human) [28] = test: as above; conditions: remark: other sources report otherwise
HLA-A*0202 (human) [29] = test: competition binding to purified HLA, 125I-labelled standard peptide, gel filtration; ratio = IC50 standard / IC50 test peptide
HLA-A*0206 (human) [30] = test: competition with 125I standard peptide for purified HLA; gel filtration
HLA-A*0203 (human) [31] = test: competition with 125I-labelled standard peptide for purified HLA, gel filtration; ratio = IC50 standard / IC50 test peptide; conditions: remark: other sources report otherwise
HLA-A*0206 (human) [32] = test: as above; conditions: remark: other sources report otherwise
HLA-A*0301 (human) [33] = test: competition with 125I-labelled standard peptide for purified HLA, gel filtration; conditions: scale: ratio
HLA-A*1101 (human) [34] = test: as above; conditions: scale: ratio
HLA-A*0201 (human) [35] = test: competition with 125I-labelled standard peptide 941.01 for purified HLA-A*0201, gel filtration
HLA-A*0202 (human) [36] = test: competition with 125I-labelled standard peptide 941.01 for purified HLA-A*0202, gel filtration
HLA-A*0206 (human) [37] = test: competition with 125I-labelled standard peptide 941.01 for purified HLA-A*0206, gel filtration
HLA-A*6802 (human) [38] = test: competition with 125I-labelled standard peptide 1072.34 for purified HLA-A*6802, gel filtration
[39] = remark: other sources report otherwise

binding affinity ratio (IC50 of standard peptide / IC50 of test peptide) (ratio to standard peptide) [1]: 0.0001
Binder: DTFPTDPIK (modifications not checked) [PAP peptide … (position 51, 9 amino acids)]

IC50 (HLA-A*0201 (human) [2]): 10 nM
IC50 (HLA-A*0202 (human) [3]): 2.9 nM
IC50 (HLA-A*0203 (human) [4]): 12 nM
IC50 (HLA-A*0206 (human) [5]): 5.6 nM
IC50 (HLA-A*6802 (human) [6]): 3.5 nM
Binder: LVCNGVLQGV (modifications not checked) [Peptide 1418.55, … (PSA.213.V10)]

IC50 (HLA-A*0202 (human) [7]): 0.8 nM
IC50 (HLA-A*0203 (human) [8]): 1.7 nM
IC50 (HLA-A*0206 (human) [9]): 7.6 nM
IC50 (HLA-A*6802 (human) [10]): 195 nM
Binder: MMNDQLMFL (modifications not checked) [Peptide 1126.01 … (PSM.663)]

IC50 (HLA-A*0202 (human) [3]; [39]): 4.9 nM
IC50 (HLA-A*0203 (human) [4]; [39]): 40 nM
IC50 (HLA-A*0206 (human) [5]; [39]): 712 nM
IC50 (HLA-A*6802 (human) [6]; [39]): 229 nM
Binder: TLSVTWIGV (modifications not checked) [Peptide 60.0217, … (PSA.5.V9)]

binding affinity ratio (HLA-A*6802 (human) [11]): -0.0001
Binder: ALSVGCTGA (modifications not checked) [… (Kallikrein, position 9)]

IC50 (HLA-A*0201 (human) [12]): 26 nM
IC50 (HLA-A*0202 (human) [7]): 0.4 nM
IC50 (HLA-A*0203 (human) [8]): 5 nM
IC50 (HLA-A*0206 (human) [9]): 57 nM
Binder: VLAGGFFLV (modifications not checked) [Peptide 1389.20 … (PSM.27.V9)]

binding affinity ratio (IC50 of standard peptide / IC50 of test peptide) (HLA-A*1101 (human) [13]; [39]): 0.031
Binder: RAVCGGVLVH (modifications not checked) [PSA 43 …]

binding affinity ratio (IC50 of standard peptide / IC50 of test peptide) (ratio to standard peptide) [1]: 0.0006
Binder: EIASKFSER (modifications not checked) [PSM peptide … (position 641, 9 amino acids)]

IC50 (HLA-A*0201 (human) [12]): 238 nM
IC50 (HLA-A*0202 (human) [7]): 27 nM
IC50 (HLA-A*0203 (human) [8]): 44 nM
IC50 (HLA-A*0206 (human) [9]): 82 nM
IC50 (HLA-A*6802 (human) [10]): 258 nM
Binder: ATFDIESKV (modifications not checked) [Peptide 1418.30 … (PSM.711.T2)]

binding affinity ratio (HLA-A*0202 (human) [14]; [39]): 0.05
Binder: IALSVGCTGA (modifications not checked) [… (Kallikrein position 8, 10-mer)]

binding affinity ratio (IC50 of standard peptide / IC50 of test peptide) (HLA-A*0101 (human)): 0.0002
binding affinity ratio (IC50 of standard peptide / IC50 of test peptide) (HLA-A*1101 (human) [15]): 0.0002
Binder: RNETQHEPY (modifications not checked) [… (PAP, position 332)]

IC50 (HLA-A*0201 (human) [16]): 25 nM
IC50 (HLA-A*0202 (human) [17]): 1.8 nM
IC50 (HLA-A*0203 (human) [18]): 17 nM
IC50 (HLA-A*6802 (human) [19]): 60 nM
Binder: LLWQPIPVHV (modifications not checked) [Peptide 1419.69 … (PAP.136.V10)]

binding affinity ratio (HLA-A*0201 (human) [20]): -0.0001
binding affinity ratio (HLA-A*0203 (human) [21]): 0.0003
binding affinity ratio (HLA-A*0206 (human) [22]): 0.0003
Binder: VLGLPTQEPAL (modifications not checked) [… (Kallikrein, position 138)]

binding affinity ratio (HLA-A*0201 (human) [23]): 0.002
binding affinity ratio (HLA-A*0203 (human) [24]): 0.0005
binding affinity ratio (HLA-A*0206 (human) [25]): 0.0009
Binder: HLLSNDMCA (modifications not checked) [… (Kallikrein position 177, 9-mer)]

binding affinity ratio (IC50 of standard peptide / IC50 of test peptide) (HLA-A*0301 (human) [26]): 0.0006
binding affinity ratio (IC50 of standard peptide / IC50 of test peptide) (HLA-A*1101 (human) [15]): 0.0002
Binder: SLLSLYGIH (modifications not checked) [… (PAP, position 242)]

binding affinity ratio (HLA-A*0201 (human) [23]): 0.0001
binding affinity ratio (HLA-A*0202 (human) [14]): -0.0002
binding affinity ratio (HLA-A*0203 (human) [24]): -0.0001
binding affinity ratio (HLA-A*0206 (human) [25]): -0.0001
Binder: IALSVGCT (modifications not checked) [IALSVGCT (Kallikrein position 8, 8-mer)]

binding affinity ratio (HLA-A*0201 (human) [20]): 0.0002
binding affinity ratio (HLA-A*0203 (human) [21]): 0.0001
binding affinity ratio (HLA-A*0206 (human) [22]): 0.0001
Binder: VLTAAHCL (modifications not checked) [VLTAAHCL (Kallikrein, position 60)]

binding affinity ratio (HLA-A*0201 (human) [27]): 0.001
binding affinity ratio (HLA-A*0202 (human) [28]): 0.01
Binder: AAHCIRNKSVI (modifications not checked) [… (PSA, position 59)]

binding affinity ratio (HLA-A*0202 (human) [29]): 0.0003
Binder: DAVKVMDL (modifications not checked) [DAVKVMDL (PSA, position 130, 8 amino acids)]

IC50 (HLA-A*0201 (human) [16]): 10 nM
IC50 (HLA-A*0202 (human) [17]): 2.9 nM
IC50 (HLA-A*0203 (human) [18]): 12 nM
IC50 (HLA-A*0206 (human) [30]): 5.6 nM
IC50 (HLA-A*6802 (human) [19]): 3.5 nM
Binder: LVCNGVLQGV (modifications not checked) [Peptide 1418.55 … (HuK2.217.V10)]

binding affinity ratio (ratio to standard peptide) (HLA-A*0203 (human) [31]): 0.02
binding affinity ratio (ratio to standard peptide) (HLA-A*0206 (human) [32]): 0.0005
Binder: QVAVYSHGWA (modifications not checked) [Kallikrein (hK2) peptide …, position 39, 10 amino acids]

binding affinity ratio (IC50 of standard peptide / IC50 of test peptide) (HLA-A*1101 (human) [13]): 0.0008
Binder: QDLFGIWSK (modifications not checked) [PAP 200 …]

binding affinity ratio (IC50 of standard peptide / IC50 of test peptide) (ratio to standard peptide) [1]: 0.0006
Binder: DVLLSYPNK (modifications not checked) [PSM peptide … (position 114, 9 amino acids)]

binding affinity ratio (HLA-A*0301 (human) [33]): 1
binding affinity ratio (HLA-A*1101 (human) [34]): 2
binding affinity ratio (IC50 of standard peptide / IC50 of test peptide) (HLA-A*0301 (human) [26]): 1
binding affinity ratio (IC50 of standard peptide / IC50 of test peptide) (HLA-A*1101 (human) [15]): 2
Binder: SLYESWTKK (modifications not checked) [… (PSM, position 492)]

IC50 (HLA-A*0201 (human) [16]; [39]): 5.3 nM
IC50 (HLA-A*0202 (human) [17]; [39]): 0.7 nM
IC50 (HLA-A*0203 (human) [18]; [39]): 4.3 nM
IC50 (HLA-A*0206 (human) [30]; [39]): 10 nM
IC50 (HLA-A*6802 (human) [19]; [39]): 1700 nM
Binder: LLSNDMCARV (modifications not checked) [Peptide 1418.53 … (HuK2.178.V10)]

binding affinity ratio (IC50 of standard peptide / IC50 of test peptide) (HLA-A*1101 (human) [13]): 0.0002
Binder: PSKAWGEVKR (modifications not checked) [PSM 721 …]

IC50 (HLA-A*0201 (human) [2]; [39]): 200 nM
IC50 (HLA-A*6802 (human) [6]; [39]): 5000 nM
Binder: LMLLRLSEPA (modifications not checked) [Peptide 63.0014, … (PSA.117)]

binding affinity ratio (IC50 of standard peptide / IC50 of test peptide) (HLA-A*0201 (human) [35]): -0.0001
binding affinity ratio (IC50 of standard peptide / IC50 of test peptide) (HLA-A*0202 (human) [36]): 0.0005
binding affinity ratio (IC50 of standard peptide / IC50 of test peptide) (HLA-A*0206 (human) [37]): -0.0001
binding affinity ratio (IC50 of standard peptide / IC50 of test peptide) (HLA-A*6802 (human) [38]): -0.0001
Binder: RLSEPAKI (modifications not checked) [RLSEPAKI (Kallikrein, position 125)]

binding affinity ratio (HLA-A*0202 (human) [29]): 0.0001
Binder: DTGQRVPV (modifications not checked) [DTGQRVPV (Kallikrein, position 85, 8 amino acids)]
